B1: TPR 5TU (parent)
chain: GGAUCUUCUCGAUCUAACAAAAAAGACAAAUCUGCCACAAAGCUUGAGAGCAUCUUCGGAUGCAGAGGCGGCAGCCUUCGGUGGCGCGAUAGCGCCAACGUUCUCAACUAUGACACGCAAAACGCGUGCUCCGUUGAAUGGAGUUUAUCAUG

Consider 83 variants from the RNAGym collection of RNA variant scans (doi:10.1073/pnas.2313332121).

This sample holds only a part of the variants without activity.

In this data set the parent is B1. The data set can be described thus: polymerase ribozyme fitness, log enrichment relative to wild type (log ratio); higher = more active; in vitro selection for triplet polymerase activity. Put shortly: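 Mutant libraries for each subunit of a heterodimeric triplet polymerase ribozyme were made by PCR and then transcribed. Each library underwent one round of in vitro selection in triplicate: annealing with a biotinylated primer, the partner subunit and triplets, frozen incubation at −7 °C, gel excision of extended constructs, streptavidin-bead capture and RT-PCR. Input and output libraries were Illumina-sequenced, and only genotypes with ≥10 input reads and ≥1 read per output were kept. Fitness is the logarithm, base 2, of genotype enrichment over wild-type enrichment, computed from inverse-variance-weighted replicate averages.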
As for U45A U109C, the “polymerase ribozyme fitness (log ratio)” value is -3.44.

As to G46A C85A C87U C99A, the “polymerase ribozyme fitness (log ratio)” value is at most -4.2.

With G42C G92A, the “polymerase ribozyme fitness (log ratio)” value was at most -4.2.

Take G42U C85A C99U C108G A110G: the “polymerase ribozyme fitness (log ratio)” value is at most -4.2.

Take U44G A49C C93U C125U A150U: the “polymerase ribozyme fitness (log ratio)” value is at most -4.2.

On to G46C C93U C96U, for which the “polymerase ribozyme fitness (log ratio)” value is -2.86.

As for G42A G88A G124A C125U C129A, the “polymerase ribozyme fitness (log ratio)” value was at most -4.2.

Turning to U44A C116G, the “polymerase ribozyme fitness (log ratio)” value is -4.19.

G46U G83A G143C: the “polymerase ribozyme fitness (log ratio)” value was -4.16.

Take G42A G50A A66U G88A C96G U139C: the “polymerase ribozyme fitness (log ratio)” value is at most -4.2.

Regarding U45A G48U G50A G59C G68U C96U C131A A137C G152A, the “polymerase ribozyme fitness (log ratio)” value was at most -4.2.

Turning to A47C U61C C96U, the “polymerase ribozyme fitness (log ratio)” value is -3.35.

As to A47C G83A C118U G133C U148C, the “polymerase ribozyme fitness (log ratio)” value is at most -4.2.

On to A47G C57U U109G, for which the “polymerase ribozyme fitness (log ratio)” value was -0.869.

G46U G59A G74A G84C U104C G112C U134G U145A: the “polymerase ribozyme fitness (log ratio)” value was at most -4.2.

Consider U44A G46C C87U, for which the “polymerase ribozyme fitness (log ratio)” value is at most -4.2.

Turning to A47C C69A A89G G124A, the “polymerase ribozyme fitness (log ratio)” value was -3.28.

Take A47C A89U A150G: the “polymerase ribozyme fitness (log ratio)” value is -1.84.

With U44A G117A U135G, the “polymerase ribozyme fitness (log ratio)” value is at most -4.2.

On to A47G C69A A122G, for which the “polymerase ribozyme fitness (log ratio)” value was -3.43.

With U44G A73U C85A C99U A142C, the “polymerase ribozyme fitness (log ratio)” value was at most -4.2.

For G42C U53A G83C G126U, the “polymerase ribozyme fitness (log ratio)” value was at most -4.2.

Consider G46U C85A, for which the “polymerase ribozyme fitness (log ratio)” value is -2.02.

Take U45A A52G C63G A64U G70C A89C U101G C116A: the “polymerase ribozyme fitness (log ratio)” value is at most -4.2.

As to U44G G81C C96U C108G, the “polymerase ribozyme fitness (log ratio)” value is at most -4.2.

As to A47C A73U G124C, the “polymerase ribozyme fitness (log ratio)” value was -3.78.

U45G C87U U111G A147C: the “polymerase ribozyme fitness (log ratio)” value is at most -4.2.

Take A47C C96A: the “polymerase ribozyme fitness (log ratio)” value is -0.697.

As for G46C C76U U102C C116U A137C, the “polymerase ribozyme fitness (log ratio)” value was at most -4.2.

In the case of G46C A110G, the “polymerase ribozyme fitness (log ratio)” value was at most -4.2.

U44G C57G A91U A107G C125U U130C U135G: the “polymerase ribozyme fitness (log ratio)” value was at most -4.2.

Turning to U45A G62C A107U, the “polymerase ribozyme fitness (log ratio)” value was at most -4.2.

Regarding G46A C96U, the “polymerase ribozyme fitness (log ratio)” value worked out at 0.0159.

In the case of C43G U55A C96A A98C A121U, the “polymerase ribozyme fitness (log ratio)” value is at most -4.2.

Take U44G A52G U53A C75A: the “polymerase ribozyme fitness (log ratio)” value was at most -4.2.

Turning to A47C C54A C76U C85G A106U G143C, the “polymerase ribozyme fitness (log ratio)” value was at most -4.2.

As for U45A C57A C95U, the “polymerase ribozyme fitness (log ratio)” value was -2.12.

For the variant G42A G100U, the “polymerase ribozyme fitness (log ratio)” value was at most -4.2.

On to U44A U90G C93U G143A U151G, for which the “polymerase ribozyme fitness (log ratio)” value is at most -4.2.

In the case of G42C A66C, the “polymerase ribozyme fitness (log ratio)” value was at most -4.2.

For the variant A47C A107U C108A, the “polymerase ribozyme fitness (log ratio)” value was at most -4.2.

For the variant A47G G62U U145C U151A, the “polymerase ribozyme fitness (log ratio)” value is at most -4.2.

For the variant C43U G46A U90C C95U A106U, the “polymerase ribozyme fitness (log ratio)” value was at most -4.2.

G46A U82C C95U C125G: the “polymerase ribozyme fitness (log ratio)” value is -1.73.

With U45G C85U, the “polymerase ribozyme fitness (log ratio)” value is -0.0479.

G46A A97U U109G A121G U135C: the “polymerase ribozyme fitness (log ratio)” value was at most -4.2.

Take G46U A64U C76A C87A G126U: the “polymerase ribozyme fitness (log ratio)” value is at most -4.2.

Regarding A47G G62U A142G U146G, the “polymerase ribozyme fitness (log ratio)” value is -4.12.

As for G42C C43A U55G C57U A66C A137C G141C, the “polymerase ribozyme fitness (log ratio)” value was at most -4.2.

In the case of U45A G94A, the “polymerase ribozyme fitness (log ratio)” value is -2.81.

For A47C C51A C54U U61A C79A C93G C95A C132U C149U, the “polymerase ribozyme fitness (log ratio)” value is at most -4.2.

For the variant G46C C57U U61G C75G A119U G141A, the “polymerase ribozyme fitness (log ratio)” value is at most -4.2.

U45A G50A U135G: the “polymerase ribozyme fitness (log ratio)” value is at most -4.2.

Turning to G46U U77G C87U A89U C93A G124U, the “polymerase ribozyme fitness (log ratio)” value is at most -4.2.

Take G46U A47C G58U C108U A119U G128U: the “polymerase ribozyme fitness (log ratio)” value is at most -4.2.

In the case of G46A G86C C118U A122U, the “polymerase ribozyme fitness (log ratio)” value is -3.45.

For the variant U45G U53A C85U, the “polymerase ribozyme fitness (log ratio)” value was -1.63.

U45G G50A A73C C93U C96U C99A C108A G112C G124U U127G A142G C149G: the “polymerase ribozyme fitness (log ratio)” value is at most -4.2.

As for A47G C85G U90C G124U, the “polymerase ribozyme fitness (log ratio)” value is at most -4.2.

For A47C A52U U82A A120U, the “polymerase ribozyme fitness (log ratio)” value is -1.94.

A47C G59A G62C G67C G68C C99U A107U C114A A121G: the “polymerase ribozyme fitness (log ratio)” value is at most -4.2.

In the case of U44A U45A A49C C57U G70A G84U A91U C123G, the “polymerase ribozyme fitness (log ratio)” value is at most -4.2.

A47G A98G A115G C123G U130A: the “polymerase ribozyme fitness (log ratio)” value was -3.77.

Turning to A47C U56A U78A U90G, the “polymerase ribozyme fitness (log ratio)” value was at most -4.2.

For G42A G92C, the “polymerase ribozyme fitness (log ratio)” value was -3.91.

Consider G46A A52G G86U A91G A98U C114G, for which the “polymerase ribozyme fitness (log ratio)” value was at most -4.2.

For the variant A47G U55A G84U G128A, the “polymerase ribozyme fitness (log ratio)” value is at most -4.2.

In the case of U44A A49C C93U C123G U130G, the “polymerase ribozyme fitness (log ratio)” value was at most -4.2.

For the variant U45A G58A G83A U148C, the “polymerase ribozyme fitness (log ratio)” value was at most -4.2.

As to A47C U56C G68A C125U, the “polymerase ribozyme fitness (log ratio)” value is -4.09.

For G42A G59A G74U C96G A137G, the “polymerase ribozyme fitness (log ratio)” value was at most -4.2.

Take A47C U55A C57A G84U C96U C99U G136A G143C: the “polymerase ribozyme fitness (log ratio)” value was at most -4.2.

A47G U82G C95G: the “polymerase ribozyme fitness (log ratio)” value is -3.89.

Take U45A A64U G67C G74A G83A A120G: the “polymerase ribozyme fitness (log ratio)” value is at most -4.2.

On to A47G U55A C79G C93U, for which the “polymerase ribozyme fitness (log ratio)” value is at most -4.2.

As to A47C C103G U135G, the “polymerase ribozyme fitness (log ratio)” value was at most -4.2.

Take A47G U90C G92C G128U A137C A147C: the “polymerase ribozyme fitness (log ratio)” value is at most -4.2.

In the case of A47U A52G A119C, the “polymerase ribozyme fitness (log ratio)” value is -1.05.

As for U45A G67A C79A A91U A121G, the “polymerase ribozyme fitness (log ratio)” value was at most -4.2.

As for A47C C105A, the “polymerase ribozyme fitness (log ratio)” value is -1.02.

Turning to U45A U77G G84U C118U, the “polymerase ribozyme fitness (log ratio)” value was at most -4.2.

With C43G G67U G83U C93G C103U C116A, the “polymerase ribozyme fitness (log ratio)” value is at most -4.2.

Regarding A47G C99A A142U, the “polymerase ribozyme fitness (log ratio)” value was -2.48.
